Experimental findings from paper PMC3852661 (2013) are described below.

What all share (assay): MST
Assay [1] deals with MBP-SUFU-SH (human, UniProt Q9UMX1 32-278; Q9UMX1 361-483).
The target of assay [2] is T1, MBP-SUFU-FL (human, UniProt Q9UMX1 32-483).
T1 chain: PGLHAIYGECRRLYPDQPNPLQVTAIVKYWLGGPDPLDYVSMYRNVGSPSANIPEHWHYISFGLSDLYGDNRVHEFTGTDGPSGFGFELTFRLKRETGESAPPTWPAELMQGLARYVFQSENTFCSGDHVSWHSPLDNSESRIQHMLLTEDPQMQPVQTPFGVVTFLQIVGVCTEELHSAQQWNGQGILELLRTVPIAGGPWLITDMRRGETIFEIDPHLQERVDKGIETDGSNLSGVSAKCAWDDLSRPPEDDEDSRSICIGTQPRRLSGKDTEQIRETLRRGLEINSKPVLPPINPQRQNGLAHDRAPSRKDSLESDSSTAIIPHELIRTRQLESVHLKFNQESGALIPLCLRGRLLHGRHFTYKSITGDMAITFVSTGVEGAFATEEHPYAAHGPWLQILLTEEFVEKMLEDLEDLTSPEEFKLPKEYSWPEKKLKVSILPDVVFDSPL

In assay [3] the target is T2, MBP-SUFU-Δ (human, UniProt Q9UMX1 32-278; Q9UMX1 361-483).
T2 chain: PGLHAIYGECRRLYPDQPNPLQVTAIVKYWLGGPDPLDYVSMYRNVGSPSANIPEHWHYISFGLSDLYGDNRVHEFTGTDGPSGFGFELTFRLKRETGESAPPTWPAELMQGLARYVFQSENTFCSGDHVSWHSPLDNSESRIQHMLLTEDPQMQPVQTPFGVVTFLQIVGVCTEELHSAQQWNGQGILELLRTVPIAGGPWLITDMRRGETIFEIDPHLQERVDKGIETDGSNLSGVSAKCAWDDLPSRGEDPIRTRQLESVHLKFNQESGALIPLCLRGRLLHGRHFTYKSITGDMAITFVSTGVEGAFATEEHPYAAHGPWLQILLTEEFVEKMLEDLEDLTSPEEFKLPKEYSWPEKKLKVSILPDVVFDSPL

Where no end group is shown, it is not given here. The star is where a group is joined. 5FAM = O=C1OC2(c3ccc(O)cc3Oc3cc(O)ccc32)c2ccc(C(=O)*)cc21

As usually defined, the Kd is the equilibrium constant for the complex coming apart. Higher therefore signals a looser complex. Consider 5FAM-TSPGGSYGHLSIGTMSP [FAM-GLI1p], for which the Kd in assay [1] was 4.22 µM; in assay [2] it was 4.5 µM; in assay [3], 4.47 µM.
